According to patent US20150307617A1 (Genentech, published 2015):

T1: rat OX40 on T cells (rat, UniProt P15725 20-271)
T1 construct: whole, on cells
T1 sequence (looked up): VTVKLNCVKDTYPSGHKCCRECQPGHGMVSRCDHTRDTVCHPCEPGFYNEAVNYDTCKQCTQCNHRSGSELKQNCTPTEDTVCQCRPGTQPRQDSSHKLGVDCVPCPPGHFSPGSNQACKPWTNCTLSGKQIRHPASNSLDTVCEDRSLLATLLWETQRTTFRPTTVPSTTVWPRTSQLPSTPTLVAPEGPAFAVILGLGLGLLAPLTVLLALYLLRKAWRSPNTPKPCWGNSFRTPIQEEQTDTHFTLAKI

T2: mouse OX40 on T cells (mouse, UniProt P47741 20-272)
T2 construct: whole, on cells
T2 sequence (looked up): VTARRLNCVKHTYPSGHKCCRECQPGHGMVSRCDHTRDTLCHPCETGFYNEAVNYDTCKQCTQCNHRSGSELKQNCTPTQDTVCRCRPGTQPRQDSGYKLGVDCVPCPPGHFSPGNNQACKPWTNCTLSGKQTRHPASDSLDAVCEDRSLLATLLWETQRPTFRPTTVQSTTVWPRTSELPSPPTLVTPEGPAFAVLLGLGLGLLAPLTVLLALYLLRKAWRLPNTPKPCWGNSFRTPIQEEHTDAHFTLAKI

T3: human OX40 expressed on the cell surface (Hut78-hOX40 cells; human T cells) (human, UniProt P43489 29-277)
T3 construct: Hut78 T cell line stably transfected or retrovirally transduced with human OX40, or native OX40 on human peripheral blood T cells; also called huOX40; Hut78-OX40
T3 sequence: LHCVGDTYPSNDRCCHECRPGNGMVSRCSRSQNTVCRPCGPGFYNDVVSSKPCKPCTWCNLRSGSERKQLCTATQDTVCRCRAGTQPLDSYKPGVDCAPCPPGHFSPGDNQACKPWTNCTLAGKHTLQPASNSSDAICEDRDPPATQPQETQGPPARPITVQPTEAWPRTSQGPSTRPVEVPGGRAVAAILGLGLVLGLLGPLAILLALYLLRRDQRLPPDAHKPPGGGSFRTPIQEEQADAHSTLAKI

B1: 1A7.gr.1 (antibody, V domains shown)
VH: EVQLVQSGAEVKKPGASVKVSCKASGYTFTDSYMSWVRQAPGQGLEWIGDMYPDNGDSSYNQKFRERVTITRDTSTSTAYLELSSLRSEDTAVYYCVLAPRWYFSVWGQGTLVTVSS
VL: DIQMTQSPSSLSASVGDRVTITCRASQDISNYLNWYQQKPGKAPKLLIYYTSRLRSGVPSRFSGSGSGTDFTLTISSLQPEDFATYYCQQGHTLPPTFGQGTKVEIK
notes: human IgG1; 125I-labeled (radioligand assay) or Alexa Fluor 647-labeled (flow cytometry) in some assays; also called mab 1A7.gr.1; MOXR0916
B2: Human OX40L-flag (ligand, UniProt P23510 51-183, looked up)
chain: QVSHRYPRIQSIKVQFTEYKKEKGFILTSQKEDEIMKVQNNSVIINCDGFYLISLKGYFSQEVNISLHYQKDEEPLFQLKKVRSVNSLMVASLTYKDKVYLNVTTDNTSLDDFHVNGGELILIHQNPGEFCVL
notes: Made at Genentech; not shown: flag tag

Assays:
rat OX40 on T cells = molecular target: T1, rat OX40 on T cells; experiment: flow cytometry, Alexa Fluor 647-labeled antibody on peripheral blood T cells
mouse OX40 on T cells = molecular target: T2, mouse OX40 on T cells; experiment: as above
[1] = molecular target: T4, cynomolgus monkey OX40 on T cells (cynomolgus monkey); experiment: flow cytometry, Alexa Fluor 647-labeled antibody on cynomolgus monkey T cells, assay 1
T4 construct: whole, on cells; also called cynomolgus OX40
Description: (§1) Cells were blocked with 10% human, cynomolgus monkey, rat or mouse serum respectively in PBS for 15 minutes at 4° C. and plated in a 96 well plate at the equivalent of 100 μL of whole blood per reaction.

[2] = molecular target: T4, cynomolgus monkey OX40 on T cells; experiment: flow cytometry, Alexa Fluor 647-labeled antibody on cynomolgus monkey T cells, assay 2
Description: as §1

[3] = molecular target: T4, cynomolgus monkey OX40 on T cells; experiment: flow cytometry, Alexa Fluor 647-labeled antibody on cynomolgus monkey T cells, average (± SD)
Description: as §1

[4] = molecular target: T4, cynomolgus monkey OX40 on T cells; experiment: flow cytometry, Alexa Fluor 647-labeled antibody on cynomolgus monkey T cells, average in molar units
Description: as §1

[5] = molecular target: T3, human OX40 expressed on the cell …; experiment: flow cytometry titration of OX40L-flag on Hut78-hOX40 cells, 3-fold dilutions from 10 ug/mL, detected with anti-flag-Alexa Fluor 555
Description: (§2) After 30 min of incubation at 4 C, cells were washed twice in Wash Buffer (PBS/0.5% FBS/2 mM EDTA), followed by data acquisition on FACSCantoII flow cytometer (BD). Data were then analyzed by Flowjo program (TreeStar) and the mean fluorescent intensity (MFI) was captured. […] A titration of OX40L-flag binding was carried out in a similar fashion, except that OX40L-flag was titrated 3 fold down starting from 10 ug/mL.

[6] = molecular target: T3, human OX40 expressed on the cell …; experiment: flow cytometry competition on Hut78-hOX40 cells: OX40L-flag titrated first, then 200 ng/mL 1A7.gr.1-Alexa Fluor 647 added; readout is the MFI of 1A7.gr.1
Description: as §2
After 30 min of incubation at 4 C, cells were washed twice in Wash Buffer, followed by data acquisition on FACSCantoII flow cytometer (BD).

| Binder | binding result (rat OX40 on T cells) | binding result (mouse OX40 on T cells) | EC50 [1] [µg/mL] | EC50 [2] [µg/mL] | EC50 [3] [µg/mL] | EC50 [4] [nM] | EC50 (read off the curve) [5] [µg/mL] | IC50 (read off the curve) [6] [µg/mL] |
| --- | --- | --- | --- | --- | --- | --- | --- | --- |
| B1 | no binding (tested: titrated from 9 µg/mL) | no binding (tested: titrated from 9 µg/mL) | 0.143 | 0.142 | 0.142 | 0.946 | – | – |
| B2 | – | – | – | – | – | – | ~0.2 | ~0.2 |
